Data as given in patent US20230235013A1 (MABSOLVE, published 2023).

Legend:
[1] = molecular target: T1, Histidine-tagged recombinant human FcγRI (CD64) (human, UniProt P12314 16-288, limits assumed); experiment: SPR, His-FcγRI captured; Expt 2;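 further: biacore T200 SPR at 25 °C, Fc-variant antibodies at 100 µg/mL flowed 1 min over anti-His-captured receptor, signal read near injection end minus third buffer blank; antibody analyte injected at 100 µg/mL for 1 min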
T1 construct: bought

[2] = molecular target: T1, Histidine-tagged recombinant human …; experiment: SPR, His-FcγRI captured; mean;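 further: biacore T200 SPR at 25 °C, anti-His surface capturing FcγRI, Fc-variant antibodies injected at 100 µg/mL for 1 min, signal near injection end minus third buffer blank, three repeats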
[3] = molecular target: T1, Histidine-tagged recombinant human …; experiment: SPR, His-FcγRI captured; Expt 1;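 further: SPR at 25 °C on anti-His antibody chip capturing FcγRI, Fc-variant antibodies injected at 100 µg/mL for 1 min, signal near end of injection minus buffer blank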
Procedure: (§1) Binding analysis was carried out by surface plasmon resonance at 25° C. using a Biacore® T200 instrument with Biacore® T200 control software. The sample compartment was held at 5° C. The running buffer (HBS-EP+) consisted of 0.01 M HEPES pH 7.4, containing 0.15 M NaCl, 3 mM EDTA, and 0.05% v/v Surfactant P20. Methods were run using the manufacturer's standard method wizards as described in the Biacore® T200 Instrument Handbook.
(§2) The cell was activated by treatment with EDC/NHS for 7 min. The antibody was diluted to 10 μg/mL in 10 mM sodium acetate pH 5.0 and injected for 7 min at 5 μL/min. The flow cell was deactivated by injection of 1M ethanolamine for 7 min. This process was repeated in the absence of anti-his antibody on a separate flow cell to generate a reference surface. […] Samples of purified antibodies comprising variant Fc regions (1 mg/mL in PBS) were diluted with running buffer to 100 μg/mL and were injected for 1 min at 30 μL/min and allowed to disassociate for 2 min. Between each cycle, the chip was regenerated by injection of 10 mM glycine pH 3.0 for 0.5 min at a flow rate of 30 μL/min and recharged with a fresh injection of FcγRI. At the beginning of each experiment, three blank cycles were run, with buffer alone being injected instead of test sample. The average SPR signal (relative to the reference cell) was measured in a window approximately 8 to 13 seconds before the injection of test sample (baseline) and approximately 3 to 8 seconds before the end of injection (response). The response of the third of the blank (buffer) samples was subtracted from the response of each test sample in order to allow for any dissociation of the bound FcγRI giving a corrected response for each test sample. The whole experiment was repeated three times with the test samples being analysed in different orders each time.

[4] = molecular target: T1, Histidine-tagged recombinant human …; experiment: SPR, His-FcγRI captured; Expt 3;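 further: biacore T200 SPR at 25 °C, Fc-variant antibodies at 100 µg/mL flowed 1 min over anti-His-captured FcγRI, signal taken just before injection end minus a buffer blank cycle; antibody analyte injected at 100 µg/mL for 1 min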
Procedure: as §1, §2

Row | Binder | Corrected response (RU) [1] | Corrected response (RU), Mean [2] | Corrected response (RU) [3] | Corrected response (RU) [4]
1 | anti-CD20 human IgG1 L234Q/L235D/G236R (antibody, also called 2-28) heavy: QVQLQQPGAELVKPGASVKMSCKASGYTFTSYNMHWVKQTPGRGLEWIGAIYPGNGDTSYNQKFKGKATLTADKSSSTAYMQLSSLTSEDSAVYYCARSTYYGGDWYFNVWGAGTTVTVSSASTKGPSVFPLAPSSKSTSGGTAALGCLVKDYFPEPVTVSWNSGALTSGVHTFPAVLQSSGLYSLSSVVTVPSSSLGTQTYICNVNHKPSNTKVDKKVEPKSCDKTHTCPPCPAPEQDRGPSVFLFPPKPKDTLMISRTPEVTCVVVDVSHEDPEVKFNWYVDGVEVHNAKTKPREEQYNSTYRVVSVLTVLHQDWLNGKEYKCKVSNKALPAPIEKTISKAKGQPREPQVYTLPPSRDELTKNQVSLTCLVKGFYPSDIAVEWESNGQPENNYKTTPPVLDSDGSFFLYSKLTVDKSRWQQGNVFSCSVMHEALHNHYTQKSLSLSPGK light: QIVLSQSPAILSASPGEKVTMTCRASSSVSYIHWFQQKPGSSPKPWIYATSNLASGVPVRFSGSGSGTSYSLTISRVEAEDAATYYCQQWTSNPPTFGGGTKLEIKRTVAAPSVFIFPPSDEQLKSGTASVVCLLNNFYPREAKVQWKVDNALQSGNSQESVTEQDSKDSTYSLSSTLTLSKADYEKHKVYACEVTHQGLSSPVTKSFNRGEC | 2.7 RU | 3.8 RU | 4.3 RU | 4.4 RU
2 | anti-CD20 human IgG1 L234S/G236R (antibody, also called 2-50) heavy: not shown light: QIVLSQSPAILSASPGEKVTMTCRASSSVSYIHWFQQKPGSSPKPWIYATSNLASGVPVRFSGSGSGTSYSLTISRVEAEDAATYYCQQWTSNPPTFGGGTKLEIKRTVAAPSVFIFPPSDEQLKSGTASVVCLLNNFYPREAKVQWKVDNALQSGNSQESVTEQDSKDSTYSLSSTLTLSKADYEKHKVYACEVTHQGLSSPVTKSFNRGEC | 21.6 RU | 28.7 RU | 33.7 RU | 30.9 RU
3 | anti-CD20 human IgG1 L234Q/L235H/G236R (antibody, also called 2-29) heavy: QVQLQQPGAELVKPGASVKMSCKASGYTFTSYNMHWVKQTPGRGLEWIGAIYPGNGDTSYNQKFKGKATLTADKSSSTAYMQLSSLTSEDSAVYYCARSTYYGGDWYFNVWGAGTTVTVSSASTKGPSVFPLAPSSKSTSGGTAALGCLVKDYFPEPVTVSWNSGALTSGVHTFPAVLQSSGLYSLSSVVTVPSSSLGTQTYICNVNHKPSNTKVDKKVEPKSCDKTHTCPPCPAPEQHRGPSVFLFPPKPKDTLMISRTPEVTCVVVDVSHEDPEVKFNWYVDGVEVHNAKTKPREEQYNSTYRVVSVLTVLHQDWLNGKEYKCKVSNKALPAPIEKTISKAKGQPREPQVYTLPPSRDELTKNQVSLTCLVKGFYPSDIAVEWESNGQPENNYKTTPPVLDSDGSFFLYSKLTVDKSRWQQGNVFSCSVMHEALHNHYTQKSLSLSPGK light: QIVLSQSPAILSASPGEKVTMTCRASSSVSYIHWFQQKPGSSPKPWIYATSNLASGVPVRFSGSGSGTSYSLTISRVEAEDAATYYCQQWTSNPPTFGGGTKLEIKRTVAAPSVFIFPPSDEQLKSGTASVVCLLNNFYPREAKVQWKVDNALQSGNSQESVTEQDSKDSTYSLSSTLTLSKADYEKHKVYACEVTHQGLSSPVTKSFNRGEC | 6.7 RU | 5.7 RU | 2.2 RU | 8.1 RU
4 | anti-CD20 human IgG1 L234R/L235D/G236R (antibody) heavy: QVQLQQPGAELVKPGASVKMSCKASGYTFTSYNMHWVKQTPGRGLEWIGAIYPGNGDTSYNQKFKGKATLTADKSSSTAYMQLSSLTSEDSAVYYCARSTYYGGDWYFNVWGAGTTVTVSSASTKGPSVFPLAPSSKSTSGGTAALGCLVKDYFPEPVTVSWNSGALTSGVHTFPAVLQSSGLYSLSSVVTVPSSSLGTQTYICNVNHKPSNTKVDKKVEPKSCDKTHTCPPCPAPERDRGPSVFLFPPKPKDTLMISRTPEVTCVVVDVSHEDPEVKFNWYVDGVEVHNAKTKPREEQYNSTYRVVSVLTVLHQDWLNGKEYKCKVSNKALPAPIEKTISKAKGQPREPQVYTLPPSRDELTKNQVSLTCLVKGFYPSDIAVEWESNGQPENNYKTTPPVLDSDGSFFLYSKLTVDKSRWQQGNVFSCSVMHEALHNHYTQKSLSLSPGK light: QIVLSQSPAILSASPGEKVTMTCRASSSVSYIHWFQQKPGSSPKPWIYATSNLASGVPVRFSGSGSGTSYSLTISRVEAEDAATYYCQQWTSNPPTFGGGTKLEIKRTVAAPSVFIFPPSDEQLKSGTASVVCLLNNFYPREAKVQWKVDNALQSGNSQESVTEQDSKDSTYSLSSTLTLSKADYEKHKVYACEVTHQGLSSPVTKSFNRGEC | 0.9 RU | 1.8 RU | 0.4 RU | 4.2 RU
5 | anti-CD20 human IgG1 L234Q/L235R/G236R (antibody, also called 2-32) heavy: QVQLQQPGAELVKPGASVKMSCKASGYTFTSYNMHWVKQTPGRGLEWIGAIYPGNGDTSYNQKFKGKATLTADKSSSTAYMQLSSLTSEDSAVYYCARSTYYGGDWYFNVWGAGTTVTVSSASTKGPSVFPLAPSSKSTSGGTAALGCLVKDYFPEPVTVSWNSGALTSGVHTFPAVLQSSGLYSLSSVVTVPSSSLGTQTYICNVNHKPSNTKVDKKVEPKSCDKTHTCPPCPAPEQRRGPSVFLFPPKPKDTLMISRTPEVTCVVVDVSHEDPEVKFNWYVDGVEVHNAKTKPREEQYNSTYRVVSVLTVLHQDWLNGKEYKCKVSNKALPAPIEKTISKAKGQPREPQVYTLPPSRDELTKNQVSLTCLVKGFYPSDIAVEWESNGQPENNYKTTPPVLDSDGSFFLYSKLTVDKSRWQQGNVFSCSVMHEALHNHYTQKSLSLSPGK light: QIVLSQSPAILSASPGEKVTMTCRASSSVSYIHWFQQKPGSSPKPWIYATSNLASGVPVRFSGSGSGTSYSLTISRVEAEDAATYYCQQWTSNPPTFGGGTKLEIKRTVAAPSVFIFPPSDEQLKSGTASVVCLLNNFYPREAKVQWKVDNALQSGNSQESVTEQDSKDSTYSLSSTLTLSKADYEKHKVYACEVTHQGLSSPVTKSFNRGEC | 2.6 RU | 3.9 RU | -0.2 RU | 9.4 RU

More lines, now with the values ahead:

Row | Corrected response (RU) [1] | Corrected response (RU), Mean [2] | Corrected response (RU) [3] | Corrected response (RU) [4] | Binder
6 | 5.3 RU | 5.3 RU | 3.7 RU | 6.9 RU | anti-CD20 human IgG1 L234S/L235E/G236R (antibody, also called 2-46) heavy: QVQLQQPGAELVKPGASVKMSCKASGYTFTSYNMHWVKQTPGRGLEWIGAIYPGNGDTSYNQKFKGKATLTADKSSSTAYMQLSSLTSEDSAVYYCARSTYYGGDWYFNVWGAGTTVTVSSASTKGPSVFPLAPSSKSTSGGTAALGCLVKDYFPEPVTVSWNSGALTSGVHTFPAVLQSSGLYSLSSVVTVPSSSLGTQTYICNVNHKPSNTKVDKKVEPKSCDKTHTCPPCPAPESERGPSVFLFPPKPKDTLMISRTPEVTCVVVDVSHEDPEVKFNWYVDGVEVHNAKTKPREEQYNSTYRVVSVLTVLHQDWLNGKEYKCKVSNKALPAPIEKTISKAKGQPREPQVYTLPPSRDELTKNQVSLTCLVKGFYPSDIAVEWESNGQPENNYKTTPPVLDSDGSFFLYSKLTVDKSRWQQGNVFSCSVMHEALHNHYTQKSLSLSPGK light: QIVLSQSPAILSASPGEKVTMTCRASSSVSYIHWFQQKPGSSPKPWIYATSNLASGVPVRFSGSGSGTSYSLTISRVEAEDAATYYCQQWTSNPPTFGGGTKLEIKRTVAAPSVFIFPPSDEQLKSGTASVVCLLNNFYPREAKVQWKVDNALQSGNSQESVTEQDSKDSTYSLSSTLTLSKADYEKHKVYACEVTHQGLSSPVTKSFNRGEC
7 | 4.2 RU | 4.8 RU | 3.9 RU | 6.4 RU | anti-CD20 human IgG1 L234S/L235I/G236R (antibody, also called 2-49) heavy: QVQLQQPGAELVKPGASVKMSCKASGYTFTSYNMHWVKQTPGRGLEWIGAIYPGNGDTSYNQKFKGKATLTADKSSSTAYMQLSSLTSEDSAVYYCARSTYYGGDWYFNVWGAGTTVTVSSASTKGPSVFPLAPSSKSTSGGTAALGCLVKDYFPEPVTVSWNSGALTSGVHTFPAVLQSSGLYSLSSVVTVPSSSLGTQTYICNVNHKPSNTKVDKKVEPKSCDKTHTCPPCPAPESIRGPSVFLFPPKPKDTLMISRTPEVTCVVVDVSHEDPEVKFNWYVDGVEVHNAKTKPREEQYNSTYRVVSVLTVLHQDWLNGKEYKCKVSNKALPAPIEKTISKAKGQPREPQVYTLPPSRDELTKNQVSLTCLVKGFYPSDIAVEWESNGQPENNYKTTPPVLDSDGSFFLYSKLTVDKSRWQQGNVFSCSVMHEALHNHYTQKSLSLSPGK light: QIVLSQSPAILSASPGEKVTMTCRASSSVSYIHWFQQKPGSSPKPWIYATSNLASGVPVRFSGSGSGTSYSLTISRVEAEDAATYYCQQWTSNPPTFGGGTKLEIKRTVAAPSVFIFPPSDEQLKSGTASVVCLLNNFYPREAKVQWKVDNALQSGNSQESVTEQDSKDSTYSLSSTLTLSKADYEKHKVYACEVTHQGLSSPVTKSFNRGEC
8 | 4.8 RU | 5.4 RU | 4.3 RU | 7.2 RU | anti-CD20 human IgG1 L234T/L235A/G236R (antibody, also called 2-54; 1-152) heavy: not shown light: QIVLSQSPAILSASPGEKVTMTCRASSSVSYIHWFQQKPGSSPKPWIYATSNLASGVPVRFSGSGSGTSYSLTISRVEAEDAATYYCQQWTSNPPTFGGGTKLEIKRTVAAPSVFIFPPSDEQLKSGTASVVCLLNNFYPREAKVQWKVDNALQSGNSQESVTEQDSKDSTYSLSSTLTLSKADYEKHKVYACEVTHQGLSSPVTKSFNRGEC
